Assay results from patent US11357847B2, “Modified HSV gD protein and vaccine containing same” (KM Biologics Co., Ltd., priority 2017, dated 2022).
Changes are numbered by the printed parent chain.

Legend:
HVEM = target: T1, HVEM (Homo sapiens, UniProt Q92956); experiment: Reactivity of HVEM with gD variants (competitive ELISA); format: binding; conditions: compared to the original gD1-315; FIG. 14
T1 sequence (Q92956 39-202): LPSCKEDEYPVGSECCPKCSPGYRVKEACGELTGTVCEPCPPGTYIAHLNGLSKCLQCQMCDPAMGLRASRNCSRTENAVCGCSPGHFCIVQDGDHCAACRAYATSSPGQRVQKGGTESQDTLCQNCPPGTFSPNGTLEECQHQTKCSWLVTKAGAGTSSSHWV
Protocol: From the above discussion, it can be strongly inferred that each variant takes the structure in which FR1 is bound to the receptor binding region. The reactivity of HVEM with each variant was then measured by competitive ELISA.
HVEM can bind gD for the first time when FR1 binds to the receptor binding region and takes a characteristic hairpin structure. […] FR3-deficient gD1-275v5-55 promoted FR1 binding and further HVEM binding over other gD1-315-based variants in which FR3 was present.

[1] = system: various anti-gD2 antibodies; experiment: Reactivity of gD variants with anti-gD2 antibodies (competitive ELISA); format: binding, human; conditions: immobilized gD variant
Excerpt: Each anti-gD2 monoclonal antibody and each gD variant were expressed using an Expi293 expression system.

HSV-2 MS strain = experiment: Mouse infection-prevention test of modified gD (genital herpes infection model); format: in vivo, BALB/c mice; set-up: key to Determination (vs gD1-315) / Determination# (vs gD1-315): ++: minimum effective dose based on the Significant difference test in three-fold common ratio relative to gD1-315(WT) of two or more doses stronger; +: those of one dose stronger; ±: those of an equivalent value
Protocol: Immunogenicity test of the modified gD antigen was performed using the wild-type gD antigen gD1-315 (WT) as a positive control and saline as a negative control. A predetermined amount of antigen was dissolved in saline for injection (saline) with MPLA (10 μg/mouse) and CpG (1 μg/mouse) and immunized to mice at a volume of 200 μL/mouse. BALB/c mice (5 weeks old, female) were used for the study and immunized subcutaneously in back at 2-week intervals for a total of 3 times (N=4 cases per group). Two weeks after the final immunization (third dose), blood was collected and serum was prepared for each individual. The prepared serum was serially diluted and assessed for neutralizing antibody-inducing activity against HSV-2 (50% plaque number-reducing activity).
An infection-prevention test in the preventive administration of modified gD antigen was performed using a mouse genital herpes infection model. Similar to the mouse immunogenicity test described above, mice were immunized with the number of N=10 cases per group. Depo-Provera was inoculated subcutaneously at 2 mg/mouse 6 days prior to viral inoculation to improve the multiplicity of infection upon viral inoculation 2 weeks after final immunization (third dose). 5×10^5 PFU/20 μL HSV-2 MS strain was inoculated transvaginally under anesthesia and observed for 21 days. Infection prevention ability was evaluated using survival time (survival rate) as index.
The infection model of the mouse genital herpes infection model was used to evaluate infection prevention ability of various modified gD in preventive administration. The number of animal cases in each group was set to n=10, and wild-type gD (gD1-315) was used as a positive control and saline was used as a negative control. The experiments were performed a total of four times (experiments 1-4) and four doses of 0.1 μg/mouse/time, 0.03 μg/mouse/time, 0.01 μg/mouse/time and 0.003 μg/mouse/time were set for all of the positive control, negative control, and subject modified gD antigen. Depo-Provera was inoculated subcutaneously at 2 mg/mouse 6 days prior to viral inoculation to improve the multiplicity of infection upon viral inoculation 2 weeks after final immunization (third dose). 5×10^5 PFU/20 HSV-2 MS strain was inoculated transvaginally under anesthesia and observed for 21 days. Infection prevention ability was evaluated using survival time (survival rate) as index. Mean values of those were plotted in the graph. A Significant difference test for the negative control group was performed by the Kaplan-Meier method, and those with a minimum effective dose based on the Significant difference test in three-fold common ratio relative to wild type gD of two or more doses stronger were determined to be “++”, those of one dose stronger were determined to be “+”, and those of an equivalent value were determined to be “±”.

[2] = Properties of produced gD variants (aggregates); format: physicochemical; conditions: expressed and purified variant
Excerpt: Four gD1-275-based variants were produced. Since these were FR3-deficient variants, V231W mutations affecting FR3 were not investigated. […] Meanwhile, eight gD1-315-based variants were produced, and none of the variants were less than the original gD1-315 in both properties and expression level.

[3] = Experiment 1, 0.003 μg/head/time
[4] = Experiment 1, 0.01 μg/head/time
[5] = Experiment 1, 0.03 μg/head/time
[6] = Experiment 2, 0.003 μg/head/time
[7] = Experiment 2, 0.01 μg/head/time
[8] = Experiment 2, 0.03 μg/head/time
[9] = Experiment 3, 0.003 μg/head/time
[10] = Experiment 3, 0.01 μg/head/time
[11] = Experiment 3, 0.03 μg/head/time
[12] = Experiment 4, 0.003 μg/head/time
[13] = Experiment 4, 0.01 μg/head/time
[14] = Experiment 4, 0.03 μg/head/time
[15] = Experiment 4, minimum effective dose relative to gD1-315(WT)

## gD1-315: wild-type soluble gD ectodomain 1-315 of HSV-2 333 strain, SEQ ID NO: 1; positive control [reference compound]
HVEM
  Reactivity with HVEM: little reaction
[1]
  Reactivity with anti-gD2 antibody 1: + ((+): 70% or more)
  Reactivity with anti-gD2 antibody 5: + ((+): 70% or more)
  Reactivity with anti-gD2 antibody 13: + ((+): 70% or more)
  Reactivity with anti-gD2 antibody 72: + ((+): 70% or more)
  Reactivity with anti-gD2 antibody 75: + ((+): 70% or more)
  Reactivity with anti-gD2 antibody 78: + ((+): 70% or more)
  Reactivity with anti-gD2 antibody 82: + ((+): 70% or more)
HSV-2 MS strain; [3]
  Mean survival time: 6.5 days
  Significant difference test (vs saline): N.S.
HSV-2 MS strain; [4]
  Mean survival time: 7 days
  Significant difference test (vs saline): N.S.
HSV-2 MS strain; [5]
  Mean survival time: >21 days
  Significant difference test (vs saline): *** (*** p < 0.001)
HSV-2 MS strain; Experiment 1, 0.1 μg/head/time
  Mean survival time: >21 days
  Significant difference test (vs saline): *** (*** p < 0.001)
HSV-2 MS strain; [6]
  Mean survival time: 7.5 days
  Significant difference test (vs saline): N.S.
HSV-2 MS strain; [7]
  Mean survival time: 7.5 days
  Significant difference test (vs saline): N.S.
HSV-2 MS strain; [8]
  Mean survival time: >14.5 days
  Significant difference test (vs saline): N.S.
HSV-2 MS strain; Experiment 2, 0.1 μg/head/time
  Mean survival time: >22 days
  Significant difference test (vs saline): *** (*** p < 0.001)
HSV-2 MS strain; [9]
  Mean survival time: 6 days
  Significant difference test (vs saline): N.S.
HSV-2 MS strain; [10]
  Mean survival time: 8 days
  Significant difference test (vs saline): * (* 0.01 = < p < 0.05)
HSV-2 MS strain; [11]
  Mean survival time: >21 days
  Significant difference test (vs saline): *** (*** p < 0.001)
HSV-2 MS strain; Experiment 3, 0.1 μg/head/time
  Mean survival time: >21 days
  Significant difference test (vs saline): *** (*** p < 0.001)
HSV-2 MS strain; [12]
  Mean survival time: 8 days
  Significant difference test (vs saline): N.S.
HSV-2 MS strain; [13]
  Mean survival time: 7.5 days
  Significant difference test (vs saline): N.S.
HSV-2 MS strain; [14]
  Mean survival time: >16.5 days
  Significant difference test (vs saline): N.S.
HSV-2 MS strain; Experiment 4, 0.1 μg/head/time
  Mean survival time: >21 days
  Significant difference test (vs saline): *** (*** p < 0.001)

B1: gD1-275 (protein)
chain: KYALADPSLKMADPNRFRGKNLPVLDQLTDPPGVKRVYHIQPSLEDPFQPPSIPITVYYAVLERACRSVLLHAPSEAPQIVRGASDEARKHTYNLTIAWYRMGDNCAIPITVMEYTECPYNKSLGVCPIRTQPRWSYYDSFSAVSEDNLGFLMHAPAFETAGTYLRLVKINDWTEITQFILEHRARASCKYALPLRIPPAACLTSKAYQQGVTVDSIGMLPRFIPENQRTVALYSLKIAGWHGPKPPYTSTLLPPELSDTTNATQPELVPEDPED
[2]
  Properties of the variant (aggregates): Aggregation
[1]
  Reactivity with anti-gD2 antibody 1: − ((−): less than 30%)
  Reactivity with anti-gD2 antibody 5: + ((+): 70% or more)
  Reactivity with anti-gD2 antibody 13: + ((+): 70% or more)
  Reactivity with anti-gD2 antibody 72: + ((+): 70% or more)
  Reactivity with anti-gD2 antibody 75: + ((+): 70% or more)
  Reactivity with anti-gD2 antibody 78: + ((+): 70% or more)
  Reactivity with anti-gD2 antibody 82: + ((+): 70% or more)

B2: gD1-275v3-55: gD1-275 with glycochain at SC-F, linked to T cell epitope peptide DP5 (protein)
chain: KYALADPSLKMADPNRFRGKNLPVLDQLTDPPGVKRVYHIQPSLEDPFQNASIPITVYYAVLERACRSVLLHAPSEAPQIVRGASDEARKHTYNLTIAWYRMGDNCAIPITVMEYTECPYNKSLGVCPIRTQPRWSYYDSFSAVSEDNLGFLMHAPAFETAGTYLRLVKINDWTEITQFILEHRARASCKYALPLRIPPAACLTSKAYQQGVTVDSIGMLPRFIPENQRTVALYSLKIAGWHGPKPPYTSTLLPPELSDTTNATQPELVPEDPEDGPGPGIAFWVRRRAQMAPKPLRIAFWVRRRAQMAPKPLRHHHHHH
modifications: left off: small tags and cut ends
[2]
  Properties of the variant (aggregates): presence of aggregates was confirmed
[1]
  Reactivity with anti-gD2 antibody 1: − ((−): less than 30%)
  Reactivity with anti-gD2 antibody 5: − ((−): less than 30%)
  Reactivity with anti-gD2 antibody 13: − ((−): less than 30%)
  Reactivity with anti-gD2 antibody 72: − ((−): less than 30%)
  Reactivity with anti-gD2 antibody 75: − ((−): less than 30%)
  Reactivity with anti-gD2 antibody 78: − ((−): less than 30%)
  Reactivity with anti-gD2 antibody 82: + ((+): 70% or more)
HSV-2 MS strain; [12]
  Mean survival time: 7 days
  Significant difference test (vs saline): N.S.
HSV-2 MS strain; [13]
  Mean survival time: 7.5 days
  Significant difference test (vs saline): N.S.
HSV-2 MS strain; [14]
  Mean survival time: >21 days
  Significant difference test (vs saline): ** (** 0.001 = < p < 0.01)
HSV-2 MS strain; Experiment 4, 0.1 μg/head/time
  Mean survival time: >21 days
  Significant difference test (vs saline): ** (** 0.001 = < p < 0.01)
HSV-2 MS strain; [15]
  Determination# (vs gD1-315): +

B3: gD1-275v5-55: gD1-275 with glycochains at SC-A, SC-F, linked to T cell epitope peptide DP5 (protein)
chain: B2 chain with R186N
modifications: left off: small tags and cut ends
[2]
  Properties of the variant (aggregates): well properties
[1]
  Reactivity with anti-gD2 antibody 1: − ((−): less than 30%)
  Reactivity with anti-gD2 antibody 5: − ((−): less than 30%)
  Reactivity with anti-gD2 antibody 13: − ((−): less than 30%)
  Reactivity with anti-gD2 antibody 72: − ((−): less than 30%)
  Reactivity with anti-gD2 antibody 75: − ((−): less than 30%)
  Reactivity with anti-gD2 antibody 78: − ((−): less than 30%)
  Reactivity with anti-gD2 antibody 82: + ((+): 70% or more)
HSV-2 MS strain; [3]
  Mean survival time: 13 days
  Significant difference test (vs saline): *** (*** p < 0.001)
HSV-2 MS strain; [4]
  Mean survival time: 11 days
  Significant difference test (vs saline): *** (*** p < 0.001)
HSV-2 MS strain; [5]
  Mean survival time: >21 days
  Significant difference test (vs saline): *** (*** p < 0.001)
HSV-2 MS strain; Experiment 1, 0.1 μg/head/time
  Mean survival time: >21 days
  Significant difference test (vs saline): *** (*** p < 0.001)
HSV-2 MS strain; Experiment 1, minimum effective dose relative to gD1-315(WT)
  Determination (vs gD1-315): ++
HSV-2 MS strain; [12]
  Mean survival time: 8 days
  Significant difference test (vs saline): N.S.
HSV-2 MS strain; [13]
  Mean survival time: 15.5 days
  Significant difference test (vs saline): N.S.
HSV-2 MS strain; [14]
  Mean survival time: >21 days
  Significant difference test (vs saline): ** (** 0.001 = < p < 0.01)
HSV-2 MS strain; Experiment 4, 0.1 μg/head/time
  Mean survival time: >21 days
  Significant difference test (vs saline): *** (*** p < 0.001)
HSV-2 MS strain; [15]
  Determination# (vs gD1-315): +
